The RNAGym collection of RNA variant scans (doi:10.1073/pnas.2313332121)
Variants at the floor of the assay were thinned out.

B1: TPR 5TU (parent)
chain: GGAUCUUCUCGAUCUAACAAAAAAGACAAAUCUGCCACAAAGCUUGAGAGCAUCUUCGGAUGCAGAGGCGGCAGCCUUCGGUGGCGCGAUAGCGCCAACGUUCUCAACUAUGACACGCAAAACGCGUGCUCCGUUGAAUGGAGUUUAUCAUG

Variants of: B1
Assay: polymerase ribozyme fitness, log enrichment relative to wild type (log ratio); higher = more active; in vitro selection for triplet polymerase activity
How it was run: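 Input and output libraries were sequenced on Illumina after a single in vitro selection round, run in triplicate on PCR-built, transcribed mutant libraries of each subunit of a heterodimeric triplet polymerase ribozyme. Selection annealed libraries to a biotinylated primer, the partner subunit and triplets, incubated them frozen at −7 °C, then gel-excised extended constructs for streptavidin-bead capture and RT-PCR. Genotypes with ≥10 input reads and ≥1 read per output were kept. Fitness is the logarithm, taken in base 2, of genotype enrichment divided by wild-type enrichment, using inverse-variance-weighted replicate averages.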

Going from G25U U61G C99G A106G A107U A150G to A26U A147U, the “polymerase ribozyme fitness (log ratio)” value rises from no more than -4.2 to -0.0486.

Compared with A26G C43U U45A G59C G88A, A26U C85U A115G is higher in “polymerase ribozyme fitness (log ratio)” value: no more than -4.2 for the first, -3.36 for the second.

A26C A30C U45A C54G G92A U104G A147G and A26G U44A C54U C87A C99U U111G G143U cannot be ordered by “polymerase ribozyme fitness (log ratio)” value: no more than -4.2 for the first, no more than -4.2 for the second.

A26G A52G U90G U135A G136C and G25C U45A G59A U90G G100A C116G cannot be ordered by “polymerase ribozyme fitness (log ratio)” value: no more than -4.2 for the first, no more than -4.2 for the second.

Going from A26U A39C U45A A60C U61G G83C U102C U111G to A26C G50U C54U C96G, the “polymerase ribozyme fitness (log ratio)” value rises from no more than -4.2 to -3.92.

G25A A26G A40G A47C C85A C116G A119C and G25U A49G G59U C99A cannot be ordered by “polymerase ribozyme fitness (log ratio)” value: no more than -4.2 for the first, no more than -4.2 for the second.

Compared with G25U A41G U53G C54U G92C G124A U151C, A26C C96A A120G G124U is higher in “polymerase ribozyme fitness (log ratio)” value: no more than -4.2 for the first, -2.02 for the second.

A26G A91U U104G A122C and G25A A89U C95G cannot be ordered by “polymerase ribozyme fitness (log ratio)” value: no more than -4.2 for the first, -4.2 for the second.

First: A26C C93A
Second: G25U G50C C76A C87A U139G G141C
The “polymerase ribozyme fitness (log ratio)” value of the first is higher: -3.21 for the first, -4.02 for the second.

G25C C27A A28G A40U C149A and G25U A66U C93U G94U C125A G126U cannot be ordered by “polymerase ribozyme fitness (log ratio)” value: no more than -4.2 for the first, no more than -4.2 for the second.

G25C A49C C51U U53G C54A C116U G141A G152U and G25U U148A cannot be ordered by “polymerase ribozyme fitness (log ratio)” value: no more than -4.2 for the first, no more than -4.2 for the second.

Compared with A26C G81A C85G C87A G141U C149G, G25C C93U is higher in “polymerase ribozyme fitness (log ratio)” value: no more than -4.2 for the first, -3.59 for the second.

Going from A26U A41G G62U to G25C A52C G58C G62U U78G U82C C93A C125G, the “polymerase ribozyme fitness (log ratio)” value falls from -1.6 to no more than -4.2.

A26U C54A C93A A138C G141C and G25C A39C C76A C79U C87A A110U C114U cannot be ordered by “polymerase ribozyme fitness (log ratio)” value: no more than -4.2 for the first, no more than -4.2 for the second.

First: A24U U102C A120G A121C
Second: A26U C93U A122U
The “polymerase ribozyme fitness (log ratio)” value of the first is higher: -2.13 for the first, -2.76 for the second.

A26C G86A U102A G128U C131G and A26U C36A G68C G86U G88C cannot be ordered by “polymerase ribozyme fitness (log ratio)” value: no more than -4.2 for the first, no more than -4.2 for the second.

Compared with G25U U61G, G25U U61A is lower in “polymerase ribozyme fitness (log ratio)” value: -2.3 for the first, -3.25 for the second.

Going from A24U U61A C93A C116G to A26G C69U C79U C87U A91U, the “polymerase ribozyme fitness (log ratio)” value falls from -4.17 to no more than -4.2.

Compared with A26C U82A C95A, A26G C35U is lower in “polymerase ribozyme fitness (log ratio)” value: -2 for the first, -3.06 for the second.

First: A26U A60U U111G G141U
Second: G25U A39G U61A U77A C87U G141A U151A
The “polymerase ribozyme fitness (log ratio)” value of the first is higher: -3.78 for the first, no more than -4.2 for the second.

Compared with A26U A91G A115G A150C, G25C G50U C96U A97U is higher in “polymerase ribozyme fitness (log ratio)” value: no more than -4.2 for the first, -3.33 for the second.

Compared with A26G A89U, G25U C132U is higher in “polymerase ribozyme fitness (log ratio)” value: -4.16 for the first, -2.32 for the second.

Going from A26U C96U C116G to A26C A52U C54U G58A G71A G74C C87U C108A, the “polymerase ribozyme fitness (log ratio)” value falls from -1.18 to no more than -4.2.

G25U U45A and G25C C27G C32U A40C U55A C57A G88U C96U G141A cannot be ordered by “polymerase ribozyme fitness (log ratio)” value: no more than -4.2 for the first, no more than -4.2 for the second.

First: G25U G50C C87G G136U
Second: G25C C132U
The “polymerase ribozyme fitness (log ratio)” value of the first is lower: no more than -4.2 for the first, -3.65 for the second.

A26C A91G A121C U139C and A26U A47C A49C G80C C85A A113G A150U cannot be ordered by “polymerase ribozyme fitness (log ratio)” value: no more than -4.2 for the first, no more than -4.2 for the second.

A24U U151A and A26U A41C G71U C95A cannot be ordered by “polymerase ribozyme fitness (log ratio)” value: no more than -4.2 for the first, no more than -4.2 for the second.

Going from A26C A29U C36A G42A U61A G70A A73C to G25U C85A, the “polymerase ribozyme fitness (log ratio)” value rises from no more than -4.2 to -3.88.

Going from G25U C85G to A26U C27U U33A G34A U56A C57U C76A C85G G88A U127C, the “polymerase ribozyme fitness (log ratio)” value falls from -3.79 to no more than -4.2.

A26U C35G C69A G92A C96A A97G A120C and G25C A49C C93G cannot be ordered by “polymerase ribozyme fitness (log ratio)” value: no more than -4.2 for the first, no more than -4.2 for the second.

First: G25U U55A C72G C93G G140A
Second: G25U A89C
The “polymerase ribozyme fitness (log ratio)” value of the first is lower: no more than -4.2 for the first, -3.41 for the second.

First: A26U A37C C95G A107C G152U
Second: A26U C54U C95U
The “polymerase ribozyme fitness (log ratio)” value of the first is lower: no more than -4.2 for the first, -1.76 for the second.

First: A26C C27U
Second: A26C A47G C63A A91C A97U A98G A138U
The “polymerase ribozyme fitness (log ratio)” value of the first is higher: -2.8 for the first, no more than -4.2 for the second.

G25C A119C and G25C G83U are within 0.2 log units of each other in “polymerase ribozyme fitness (log ratio)” value: -2.68 for the first, -2.85 for the second.

First: A24U U61A
Second: G25U G46A C57U C69A G128U A138U
The “polymerase ribozyme fitness (log ratio)” value of the first is higher: -1.72 for the first, no more than -4.2 for the second.

Going from G25C U33A C69G G71A to A26C U134G, the “polymerase ribozyme fitness (log ratio)” value rises from no more than -4.2 to -4.1.

Going from G25C A60G G83C C96U G141U to A26G C75U C96U, the “polymerase ribozyme fitness (log ratio)” value falls from -2.48 to no more than -4.2.

First: A26G U145A
Second: G25C A97G
The “polymerase ribozyme fitness (log ratio)” value of the first is lower: -3.59 for the first, -2.53 for the second.

Compared with A26U C51U C72U A73U C85A C99G G100C U111G, G25U C76U is higher in “polymerase ribozyme fitness (log ratio)” value: no more than -4.2 for the first, -2.44 for the second.

Compared with A26U C85U, G25U G83A A119C is lower in “polymerase ribozyme fitness (log ratio)” value: -1.63 for the first, -2.78 for the second.

Compared with G25A A64G G88A, A26C U144C is higher in “polymerase ribozyme fitness (log ratio)” value: no more than -4.2 for the first, -2.23 for the second.

Going from A26C U144G to G25U U44G U45A U56A G80A C85U A97U, the “polymerase ribozyme fitness (log ratio)” value falls from -0.859 to no more than -4.2.
